Target: Hfq (His6-tagged) (UniProt P0A6X3 1-102)
Test: EMSA; affinity comparable to GcvB; tRNA competitor; Single-RNA EMSA: 10 mM Tris-HCl pH 7.4, 0.1 mM EDTA, 10 mM NH4Cl, 10 mM NaCl, 10 mM KCl, 1 mg/ml tRNA, 4% glycerol, RT 5 min; ~40 fmol RNA (legend); Methods say
Settings: protein: recombinant; tags: His6; chain copies: 6; label: 32P; 3' terminator hairpin

Hfq (His6-tagged), sequence (P0A6X3 whole entry): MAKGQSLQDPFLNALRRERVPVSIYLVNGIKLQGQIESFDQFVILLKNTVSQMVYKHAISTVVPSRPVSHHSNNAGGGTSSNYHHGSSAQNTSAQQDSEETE

B1: AgvB (EcOnc01) sRNA (structured_RNA)
RNA: CGAUAACACAACAAUAUCAGUAUCUCAUGCUAUUGCCCGAACCCAUUCGGGCAUUUUU
- binding result: binds

From publication PMC4104026
